The supplement of paper PMC9112550, “Optimization of the antimicrobial peptide Bac7 by deep mutational scanning” (BMC Biology, 2022)

System: Escherichia coli TOP10
Test: shrunken log2 fold change of peptide-encoding DNA abundance (4.5 h post-induction vs induction); higher = less antimicrobial activity (less host growth inhibition)
Settings: time post-induction: 4.5 h; library: site-saturation at positions 5, 18, 19, 20
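Also: peptides expressed intracellularly from a pBAD plasmid library in pooled LB shake-flask culture, induced with 0.3% L-arabinose, DNA abundance read by NGS, three biological replicates, DESeq2 with apeglm shrinkage.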

| Sequence | shrunken log2 fold change |
| --- | --- |
| RRIRRRPPRLPRPRPRPRCMPRP | 0.1 |
| RRIRDRPPRLPRPRPRPKKCPRP | 0.0235 |
| RRIRSRPPRLPRPRPRPARMPRP | -0.0672 |
| RRIRARPPRLPRPRPRPQTPPRP | 0.456 |
| RRIRQRPPRLPRPRPRPIVHPRP | -0.265 |
| RRIRNRPPRLPRPRPRPPMRPRP | 1.05 |
| RRIRGRPPRLPRPRPRPQKRPRP | 0.662 |
| RRIRFRPPRLPRPRPRPMLYPRP | -0.567 |
| RRIRHRPPRLPRPRPRPPIPPRP | -0.11 |
| RRIRPRPPRLPRPRPRPMGCPRP | -0.0927 |
| RRIRGRPPRLPRPRPRPGWEPRP | 0.506 |
| RRIRSRPPRLPRPRPRPDWIPRP | -0.337 |
| RRIRERPPRLPRPRPRPVEQPRP | -0.209 |
| RRIRFRPPRLPRPRPRPEKQPRP | -0.0262 |
| RRIRTRPPRLPRPRPRPAYTPRP | -0.149 |
| RRIRLRPPRLPRPRPRPNQGPRP | -0.148 |
| RRIRTRPPRLPRPRPRPTQNPRP | 0.385 |
| RRIRVRPPRLPRPRPRPANSPRP | -0.117 |
| RRIRDRPPRLPRPRPRPAHHPRP | 0.113 |
| RRIRFRPPRLPRPRPRPSHIPRP | -0.216 |
| RRIRLRPPRLPRPRPRPCIMPRP | -0.0711 |
| RRIRMRPPRLPRPRPRPGHFPRP | 0.274 |
| RRIRLRPPRLPRPRPRPWLHPRP | -0.0284 |
| RRIRARPPRLPRPRPRPPFMPRP | 0.376 |
| RRIRGRPPRLPRPRPRPEQIPRP | 0.438 |

| Sequence | shrunken log2 fold change |
| --- | --- |
| RRIRNRPPRLPRPRPRPSQVPRP | -0.0797 |
| RRIRARPPRLPRPRPRPWHVPRP | -0.0219 |
| RRIRERPPRLPRPRPRPMPHPRP | -0.083 |
| RRIRPRPPRLPRPRPRPNEPPRP | 0.146 |
| RRIRSRPPRLPRPRPRPGTTPRP | 0.132 |
| RRIRIRPPRLPRPRPRPMQVPRP | 0.00763 |
| RRIRARPPRLPRPRPRPPYRPRP | -0.0935 |
| RRIRIRPPRLPRPRPRPITKPRP | -0.123 |
| RRIRKRPPRLPRPRPRPLNQPRP | -0.128 |
| RRIRRRPPRLPRPRPRPARWPRP | 1.13 |
| RRIRVRPPRLPRPRPRPYEMPRP | -0.311 |
| RRIRGRPPRLPRPRPRPRAPPRP | 1.05 |
| RRIRNRPPRLPRPRPRPPKHPRP | 0.157 |
| RRIRMRPPRLPRPRPRPFNAPRP | 0.00535 |
| RRIRGRPPRLPRPRPRPDTNPRP | 0.199 |
| RRIRARPPRLPRPRPRPSVFPRP | 0.461 |
| RRIRARPPRLPRPRPRPSWFPRP | 0.156 |
| RRIRWRPPRLPRPRPRPDGIPRP | 0.151 |
| RRIRHRPPRLPRPRPRPNSEPRP | -0.795 |
| RRIRFRPPRLPRPRPRPRTVPRP | 0.086 |
| RRIRYRPPRLPRPRPRPGWNPRP | -0.182 |
| RRIRCRPPRLPRPRPRPQLKPRP | -0.194 |
| RRIRKRPPRLPRPRPRPQPRPRP | 0.752 |
| RRIRNRPPRLPRPRPRPVMIPRP | -0.311 |
| RRIRKRPPRLPRPRPRPHFIPRP | 0.136 |

| Sequence | shrunken log2 fold change |
| --- | --- |
| RRIRGRPPRLPRPRPRPWETPRP | 0.272 |
| RRIRKRPPRLPRPRPRPLDNPRP | 0.0829 |
| RRIRVRPPRLPRPRPRPQGHPRP | -0.177 |
| RRIRLRPPRLPRPRPRPEPCPRP | 0.0808 |
| RRIRHRPPRLPRPRPRPKRDPRP | 0.158 |
| RRIRCRPPRLPRPRPRPSVPPRP | -0.784 |
| RRIRSRPPRLPRPRPRPAAFPRP | 0.29 |
| RRIRDRPPRLPRPRPRPWVHPRP | -0.0818 |
| RRIRDRPPRLPRPRPRPSMSPRP | -0.33 |
| RRIRRRPPRLPRPRPRPGWVPRP | 0.359 |
| RRIRRRPPRLPRPRPRPPATPRP | 0.958 |
| RRIRYRPPRLPRPRPRPHIIPRP | -0.501 |
| RRIRSRPPRLPRPRPRPLNHPRP | -0.554 |
| RRIRKRPPRLPRPRPRPACVPRP | 0.735 |
| RRIRWRPPRLPRPRPRPRKSPRP | 0.264 |
| RRIRARPPRLPRPRPRPRVRPRP | 0.567 |
| RRIRLRPPRLPRPRPRPIRGPRP | -0.0599 |
| RRIRMRPPRLPRPRPRPRIHPRP | 0.0221 |
| RRIRFRPPRLPRPRPRPGTTPRP | -0.032 |
| RRIRNRPPRLPRPRPRPFLQPRP | -0.206 |
| RRIRSRPPRLPRPRPRPDVLPRP | -0.104 |
| RRIRSRPPRLPRPRPRPTWRPRP | 0.424 |
| RRIRKRPPRLPRPRPRPKFDPRP | -0.146 |
| RRIRVRPPRLPRPRPRPASAPRP | 0.309 |
| RRIRKRPPRLPRPRPRPYIAPRP | -0.293 |

| Sequence | shrunken log2 fold change |
| --- | --- |
| RRIRFRPPRLPRPRPRPRDFPRP | -0.141 |
| RRIRQRPPRLPRPRPRPHAPPRP | -0.0421 |
| RRIRNRPPRLPRPRPRPRTPPRP | 0.261 |
| RRIRERPPRLPRPRPRPERPPRP | -0.0522 |
| RRIRERPPRLPRPRPRPWYMPRP | -0.386 |
| RRIRFRPPRLPRPRPRPSMRPRP | 0.377 |
| RRIRVRPPRLPRPRPRPTKLPRP | -0.121 |
| RRIRMRPPRLPRPRPRPETEPRP | 3.69 |
| RRIRWRPPRLPRPRPRPCNNPRP | 0.00194 |
| RRIRSRPPRLPRPRPRPYKHPRP | -0.734 |
| RRIRHRPPRLPRPRPRPPARPRP | 1.66 |
| RRIRCRPPRLPRPRPRPQGLPRP | 0.161 |
| RRIRHRPPRLPRPRPRPQPTPRP | -0.18 |
| RRIRSRPPRLPRPRPRPWMMPRP | -0.165 |
| RRIRQRPPRLPRPRPRPHYIPRP | -0.298 |
| RRIRHRPPRLPRPRPRPCRVPRP | -0.242 |
| RRIRHRPPRLPRPRPRPDCTPRP | 0.0402 |
| RRIRRRPPRLPRPRPRPAPKPRP | 0.905 |
| RRIRWRPPRLPRPRPRPRSMPRP | 0.0304 |
| RRIRDRPPRLPRPRPRPAFLPRP | 0.000425 |
| RRIRGRPPRLPRPRPRPFNNPRP | -0.206 |
| RRIRERPPRLPRPRPRPIDVPRP | -0.0231 |
| RRIRTRPPRLPRPRPRPHQIPRP | 0.269 |
| RRIRTRPPRLPRPRPRPKNYPRP | -0.346 |
| RRIRIRPPRLPRPRPRPRCNPRP | -0.393 |

| Sequence | shrunken log2 fold change |
| --- | --- |
| RRIRCRPPRLPRPRPRPHANPRP | -0.0108 |
| RRIRMRPPRLPRPRPRPILCPRP | 0.0427 |
| RRIRSRPPRLPRPRPRPDSLPRP | 0.00187 |
| RRIRPRPPRLPRPRPRPQHFPRP | -0.297 |
| RRIRARPPRLPRPRPRPFGDPRP | 0.483 |
| RRIRFRPPRLPRPRPRPSFPPRP | -0.38 |
| RRIRKRPPRLPRPRPRPPAHPRP | 0.808 |
| RRIRQRPPRLPRPRPRPRESPRP | 0.0584 |
| RRIRLRPPRLPRPRPRPGTYPRP | 0.386 |
| RRIRIRPPRLPRPRPRPNYGPRP | 0.0426 |
| RRIRGRPPRLPRPRPRPTVKPRP | 0.642 |
| RRIRLRPPRLPRPRPRPIPVPRP | -0.0985 |
| RRIRIRPPRLPRPRPRPPKSPRP | -0.0284 |
| RRIRMRPPRLPRPRPRPWWTPRP | 0.0804 |
| RRIRMRPPRLPRPRPRPCFMPRP | -0.136 |
| RRIRSRPPRLPRPRPRPWYEPRP | -0.0183 |
| RRIRQRPPRLPRPRPRPIVSPRP | -0.0135 |
| RRIRSRPPRLPRPRPRPLCGPRP | 0.0948 |
| RRIRCRPPRLPRPRPRPVTHPRP | -0.29 |
| RRIRMRPPRLPRPRPRPPTYPRP | 0.306 |
| RRIRMRPPRLPRPRPRPHMLPRP | -0.245 |
| RRIRWRPPRLPRPRPRPQHHPRP | -0.475 |
| RRIRKRPPRLPRPRPRPVECPRP | 0.22 |
| RRIRQRPPRLPRPRPRPKCFPRP | -0.25 |
| RRIRFRPPRLPRPRPRPIYFPRP | -0.09 |
